Assay results taken from the Immune Epitope Database (IEDB).

Columns and labels:
HLA-A*30:01 = experiment: IEDB peptide-MHC binding, purified MHC/competitive/radioactivity; filed as Kd, often an IC50 or EC50 that approximates it; ≥ and ≤ were set here for values at or beyond the usual limits of such assays
HLA-A*23:01 = experiment: as above
HLA-A*26:01 = experiment: as above
HLA-A*29:02 = experiment: as above
HLA-A*24:02 = experiment: as above
HLA-A*01:01 = experiment: as above
HLA-A*30:02 = experiment: as above
HLA-A*69:01 = experiment: IEDB peptide-MHC binding, purified MHC/direct/fluorescence; filed as Kd, often an IC50 or EC50 that approximates it; ≥ and ≤ were set here for values at or beyond the usual limits of such assays
HLA-A*02:06 = experiment: IEDB peptide-MHC binding, purified MHC/competitive/radioactivity; filed as Kd, often an IC50 or EC50 that approximates it; ≥ and ≤ were set here for values at or beyond the usual limits of such assays
HLA-A*02:01 = experiment: IEDB peptide-MHC binding, purified MHC/direct/fluorescence; filed as Kd, often an IC50 or EC50 that approximates it; ≥ and ≤ were set here for values at or beyond the usual limits of such assays
HLA-A*03:01 = experiment: as above
HLA-A*02:02 = experiment: IEDB peptide-MHC binding, purified MHC/competitive/radioactivity; filed as Kd, often an IC50 or EC50 that approximates it; ≥ and ≤ were set here for values at or beyond the usual limits of such assays; settings: source organism: SARS coronavirus Tor2
HLA-A*02:03 = experiment: as above; settings: source organism: SARS coronavirus Tor2
HLA-B*15:01 = experiment: IEDB peptide-MHC binding, purified MHC/direct/fluorescence; filed as Kd, often an IC50 or EC50 that approximates it; ≥ and ≤ were set here for values at or beyond the usual limits of such assays; settings: source organism: Mycobacterium tuberculosis variant bovis
HLA-B*44:02 = experiment: IEDB peptide-MHC binding, purified MHC/competitive/radioactivity; filed as Kd, often an IC50 or EC50 that approximates it; ≥ and ≤ were set here for values at or beyond the usual limits of such assays
[1] = source organism: Vaccinia virus WR
[2] = source organism: SARS coronavirus Tor2
[3] = source organism: Mycobacterium tuberculosis
[4] = source organism: Dengue virus 2 Jamaica/1409/1983
[5] = source organism: Dengue virus 4 Philippines/H241/1956
[6] = source organism: Mammarenavirus juninense
[7] = source organism: Dengue virus 3 Martinique/1243/1999
[8] = source organism: Vibrio vulnificus

Question: HVFQEYRLK was tested. Which Kd (HLA-A*30:01; [1]) did it give?
Answer: 0.0266 µM

Question: How did the Kd (HLA-A*23:01; [2]) turn out when EWSVATFYL was run?
Answer: 5.5 µM

Question: What about the Kd (HLA-A*26:01; [2]) of the same sequence?
Answer: ≥ 45.4 µM

Question: What about the Kd (HLA-A*29:02; [2]) of the same sequence?
Answer: ≥ 59.4 µM

Question: And the Kd (HLA-A*24:02; [2])?
Answer: 1.78 µM

Question: What about the Kd (HLA-A*01:01; [2]) of the same sequence?
Answer: ≥ 78.1 µM

Question: What about the Kd (HLA-A*30:02; [2]) of the same sequence?
Answer: ≥ 29.7 µM

Question: YLAENTFVV was tested. Which Kd (HLA-A*69:01; [3]) did it give?
Answer: 0.0157 µM

Question: Which Kd (HLA-A*23:01; [4]) does the source give for QVGTYGLNTF here?
Answer: 0.79 µM

Question: With RTIMAVLFV as the sequence, how does the Kd (HLA-A*30:01; [5]) read?
Answer: 0.135 µM

Question: And the Kd (HLA-A*02:06; [5])?
Answer: 0.0194 µM

Question: For LFQFFVFLV, which Kd (HLA-A*23:01; [6]) is on record?
Answer: 15.7 µM

Question: What about the Kd (HLA-A*26:01; [6]) of the same sequence?
Answer: ≥ 57.2 µM

Question: What about the Kd (HLA-A*29:02; [6]) of the same sequence?
Answer: 0.437 µM

Question: And the Kd (HLA-A*24:02; [6])?
Answer: 18.8 µM

Question: What about the Kd (HLA-A*01:01; [6]) of the same sequence?
Answer: 0.531 µM

Question: What about the Kd (HLA-A*30:02; [6]) of the same sequence?
Answer: 0.986 µM

Question: GLMWLSYFV was tested. Which Kd (HLA-A*02:01; source organism: SARS-CoV1) did it give?
Answer: 3.19 µM

Question: And the Kd (HLA-A*69:01; source organism: SARS-CoV1)?
Answer: 0.347 µM

Question: And the Kd (HLA-A*03:01; source organism: SARS-CoV1)?
Answer: ≥ 33 µM

Question: And the Kd (HLA-A*02:02)?
Answer: 0.000199 µM

Question: What about the Kd (HLA-A*02:03) of the same sequence?
Answer: 0.00082 µM

Question: What about the Kd (HLA-A*02:06; [2]) of the same sequence?
Answer: 0.000975 µM

Question: For EISNMLSII, which Kd (HLA-A*26:01; [7]) is on record?
Answer: 3.37 µM

Question: What does the source list for LCANEYTGNY?
Answer: Kd (HLA-A*23:01; [2]): ≥ 70 µM; Kd (HLA-A*26:01; [2]): ≥ 29.9 µM; Kd (HLA-A*29:02; [2]): 0.0983 µM; Kd (HLA-A*24:02; [2]): ≥ 70.3 µM; Kd (HLA-A*01:01; [2]): 0.445 µM; Kd (HLA-A*30:02; [2]): 0.0804 µM

Question: What does the source list for RLSDPRFSQ?
Answer: Kd (HLA-A*02:01; [8]): ≥ 20 µM; Kd (HLA-A*69:01; [8]): 0.121 µM

Question: What does the source list for LDEWSVATFY?
Answer: Kd (HLA-A*23:01; [2]): ≥ 47.9 µM; Kd (HLA-A*26:01; [2]): ≥ 21.4 µM; Kd (HLA-A*29:02; [2]): 0.0952 µM; Kd (HLA-A*24:02; [2]): ≥ 32.9 µM; Kd (HLA-A*01:01; [2]): 2.38 µM; Kd (HLA-A*30:02; [2]): 0.495 µM

Question: With KYKYFSGAL as the sequence, how does the Kd (HLA-A*23:01; [2]) read?
Answer: 15 µM

Question: And the Kd (HLA-A*26:01; [2])?
Answer: ≥ 75.5 µM

Question: And the Kd (HLA-A*29:02; [2])?
Answer: ≥ 25 µM

Question: And the Kd (HLA-A*24:02; [2])?
Answer: ≥ 25.7 µM

Question: What about the Kd (HLA-A*01:01; [2]) of the same sequence?
Answer: ≥ 78.1 µM

Question: And the Kd (HLA-A*30:02; [2])?
Answer: ≥ 44.6 µM

Question: With WQGDTGITY as the sequence, how does the Kd (HLA-B*15:01) read?
Answer: 0.799 µM

Question: KFKLTLPNK was tested. Which Kd (HLA-A*30:01; [1]) did it give?
Answer: 0.0121 µM

Question: How did the Kd (HLA-B*44:02; [7]) turn out when HEMYWISNG was run?
Answer: 0.495 µM

Question: How did the Kd (HLA-A*26:01; [4]) turn out when TTMRGAKRM was run?
Answer: 8.19 µM

Question: How did the Kd (HLA-A*03:01; [3]) turn out when VLIDAGLPK was run?
Answer: 0.319 µM

Question: How did the Kd (HLA-A*30:01; [7]) turn out when NAICSAVPVH was run?
Answer: 2.95 µM

Question: Which Kd (HLA-B*44:02; [7]) does the source give for NEWITDFAG here?
Answer: 6.55 µM

Question: With KEMAETQHG as the sequence, how does the Kd (HLA-B*44:02; [5]) read?
Answer: 0.143 µM

Question: ALTLATGPIT was tested. Which Kd (HLA-A*30:01; [7]) did it give?
Answer: 0.159 µM
